In experiment [1] the target is T1, SHIP1 and STAT3 (Mus musculus, UniProt Q9ES52).
T1 construct: expressed in transfected cells; host or cells: J17 (SHIP1-/- mouse BMDM-derived line), lentiviral transduction
T1 sequence (Q9ES52 1-1191): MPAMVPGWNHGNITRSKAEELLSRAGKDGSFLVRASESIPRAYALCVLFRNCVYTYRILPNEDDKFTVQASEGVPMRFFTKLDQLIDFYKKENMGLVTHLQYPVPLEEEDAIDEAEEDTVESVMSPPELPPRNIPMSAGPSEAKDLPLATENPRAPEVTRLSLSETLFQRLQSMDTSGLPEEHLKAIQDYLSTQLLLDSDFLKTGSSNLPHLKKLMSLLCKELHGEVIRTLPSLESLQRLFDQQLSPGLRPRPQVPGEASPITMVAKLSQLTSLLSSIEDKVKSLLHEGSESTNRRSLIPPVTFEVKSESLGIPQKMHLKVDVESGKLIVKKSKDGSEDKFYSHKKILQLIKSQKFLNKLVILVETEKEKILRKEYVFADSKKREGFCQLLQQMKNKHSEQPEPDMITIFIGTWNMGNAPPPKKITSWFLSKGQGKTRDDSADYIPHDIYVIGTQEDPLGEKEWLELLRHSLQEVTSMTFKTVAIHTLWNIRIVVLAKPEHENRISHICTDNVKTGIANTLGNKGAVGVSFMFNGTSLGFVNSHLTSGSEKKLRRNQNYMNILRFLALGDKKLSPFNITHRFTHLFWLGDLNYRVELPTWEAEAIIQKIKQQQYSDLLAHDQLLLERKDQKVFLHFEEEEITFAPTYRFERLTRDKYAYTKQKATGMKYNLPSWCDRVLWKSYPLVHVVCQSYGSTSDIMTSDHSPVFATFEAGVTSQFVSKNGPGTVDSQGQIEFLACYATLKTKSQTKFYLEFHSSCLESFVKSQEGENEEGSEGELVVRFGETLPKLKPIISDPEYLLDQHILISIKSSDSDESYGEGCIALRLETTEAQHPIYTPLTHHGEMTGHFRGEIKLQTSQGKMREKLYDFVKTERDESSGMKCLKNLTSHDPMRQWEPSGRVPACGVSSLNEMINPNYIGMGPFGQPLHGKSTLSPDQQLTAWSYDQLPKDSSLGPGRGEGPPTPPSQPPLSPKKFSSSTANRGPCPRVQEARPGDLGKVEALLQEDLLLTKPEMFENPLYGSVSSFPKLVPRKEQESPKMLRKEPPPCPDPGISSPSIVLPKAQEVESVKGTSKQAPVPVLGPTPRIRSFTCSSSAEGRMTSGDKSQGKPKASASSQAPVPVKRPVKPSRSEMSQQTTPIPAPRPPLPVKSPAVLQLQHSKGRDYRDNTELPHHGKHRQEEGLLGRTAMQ
In words: In vitro pull down assay of His6-SHIP1 with STAT3. It is filed as cell-based. The conditions noted are these: J17 His6-SHIP1 cells; 100 ng/ml IL10 or IL6, 20 μM compound I-2; 5 minutes. How it is done:
In vitro pull down assay. J17 His6-SHIP1 and Y190F cells were seeded at 2×10^6 cells per well in a 6-well plate. After overnight incubation, fresh cell media was added for 30 minutes before stimulation with 100 ng/ml IL10, […] or 20 μM compound I-2 for 5 minutes. Cells were lysed with Protein Solubilization Buffer (PSB, 50 mM Hepes, pH 7.5, […], 10 mM Na Pyrophosphate, 2 mM NaVO4, 2 mM Na Molybdate, 2 mM EDTA) containing 1% octylglucoside, 0.01 M imidazole, and protease inhibitor cocktail (Roche Diagnostics, Laval, QC) for 30 minutes at 4° C. and centrifuged at 10000 rpm for 15 minutes. EDTA resistant Ni beads (Roche Diagnostics, Laval, QC) were added to supernatants and the mixture incubated at 4° C. for 1 hour before spinning down and washing of beads three times with 0.1% octylglucoside wash buffer in PSB. Bead samples and starting material cell lysates were separated on a 7.5% SDS-PAGE gel.
Immunoblotting. Protein lysates were separated on SDS-PAGE gels and transferred onto polyvinylidene fluoride (PVDF) membrane (Millipore, Etobicoke, ON). Membranes were blocked and probed, where appropriate, with the following primary antibodies overnight: SHIP1 (P1C1) (Santa Cruz Biotechnology), pSHIP1 (Y190) (Kinexus), STAT3 (9D8) (ThermoFisher Scientific), pSTAT3 (Y705) (Thermo Fisher Scientific), STAT1 (BD Transduction Laboratories), pSTAT1 (Y701) (Upstate Biotechnology), GAPDH and actin (Sigma-Aldrich). Membranes were developed with either Alexa Fluor® 660 anti-mouse IgG or Alexa Fluor® 680 anti-rabbit IgG antibodies (Thermo Fisher Scientific) and imaged using a LI-COR Odyssey Imager.

The target of experiment [2] is T2, Clover-SHIP1 and mRuby2-STAT3 (Mus musculus, UniProt Q9ES52).
T2 construct: expressed in transfected cells; host or cells: J17 (SHIP1-/- mouse macrophage line), lentiviral transduction
T2 sequence (P42227 whole entry partner, one chain of several): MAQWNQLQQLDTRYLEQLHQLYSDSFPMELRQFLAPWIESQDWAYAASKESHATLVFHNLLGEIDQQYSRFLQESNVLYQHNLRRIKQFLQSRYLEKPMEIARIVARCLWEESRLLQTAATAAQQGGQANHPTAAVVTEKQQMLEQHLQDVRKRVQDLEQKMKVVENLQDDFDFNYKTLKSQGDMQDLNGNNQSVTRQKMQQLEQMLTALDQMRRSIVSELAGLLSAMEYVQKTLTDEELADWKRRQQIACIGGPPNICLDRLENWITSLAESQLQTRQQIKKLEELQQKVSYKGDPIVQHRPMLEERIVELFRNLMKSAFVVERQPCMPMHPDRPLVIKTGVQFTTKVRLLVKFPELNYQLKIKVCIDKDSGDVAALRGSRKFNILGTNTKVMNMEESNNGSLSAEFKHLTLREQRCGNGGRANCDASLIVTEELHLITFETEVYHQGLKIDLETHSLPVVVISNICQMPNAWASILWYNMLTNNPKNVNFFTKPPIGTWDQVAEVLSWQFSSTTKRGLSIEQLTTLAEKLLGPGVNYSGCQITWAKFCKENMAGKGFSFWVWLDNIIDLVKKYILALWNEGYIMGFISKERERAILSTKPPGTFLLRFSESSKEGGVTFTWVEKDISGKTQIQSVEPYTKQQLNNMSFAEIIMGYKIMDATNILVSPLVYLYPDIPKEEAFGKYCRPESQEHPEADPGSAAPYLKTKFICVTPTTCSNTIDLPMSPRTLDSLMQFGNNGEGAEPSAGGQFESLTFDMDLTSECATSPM
In words: Acceptor photobleaching FRET analysis. It is filed as cell-based. Particulars: J17 SHIP1−/− cells expressing Clover-SHIP1/mRuby2-STAT3; 1 minute; 100 ng/ml IL10, IL6 or 20 μM I-2. How it is done: Acceptor Photobleaching FRET analysis. J17 cells expressing Clover-SHIP1 and/or mRuby2-STAT3 were seeded at 50×10^4 cells per well in 8-well Ibidi p-Slides (Ibidi GmbH, Martinsried, Germany). After overnight incubation, cells were serum-starved with Mac media containing 1% serum for 3 hours before media replacement with Leibovitz's (L-15) media (Invitrogen, Burlington, ON) supplemented with 1% serum, 10 μM β-mercaptoethanol, 150 μM monothioglycolate and 1 mM L-glutamine for confocal microscopy imaging. Cells were imaged on a Leica SP8X on DMi8 confocal microscope system with a 63×/1.3 Gly HC PL APO CS2 objective using a white light laser line with 488 nm for donor excitement and 555 nm for acceptor excitement. Photobleaching FRET analysis was performed by measuring Clover-SHIP1 donor fluorescence intensity before and after bleaching the acceptor, mRuby2-STAT3, within a field of cells ‘region of interest’ (ROI), at 100% laser intensity for 60 frames. Acceptor photobleaching was performed first in resting cells then at 1 minute (±5 seconds) following ‘mock’ stimulation with L-15 media, or L-15 media containing 100 ng/ml IL10, IL6 or 20 μM compound I-2. Donor and acceptor fluorescence intensity of individual cells within the bleached ROI was quantified before and after bleaching. Percentage FRET efficiency was calculated as % FRETeff=100×(Dpost−Dpre)/Dpost where Dpre and Dpost represent Clover-SHIP1 donor fluorescence intensity before and after bleaching, respectively.

Experiment [3] addresses T3, PAC2-K681A (Mus musculus, UniProt Q9ES52, K681A).
T3 construct: PAC1 and PAC2 consists of phosphatase and C2 domain (residues aa 402-861 and aa 402-857 respectively); made in house; host or cells: E. coli BL21 co-transformed with pBirAcm
T3 sequence (Q9ES52 402-857 K681A): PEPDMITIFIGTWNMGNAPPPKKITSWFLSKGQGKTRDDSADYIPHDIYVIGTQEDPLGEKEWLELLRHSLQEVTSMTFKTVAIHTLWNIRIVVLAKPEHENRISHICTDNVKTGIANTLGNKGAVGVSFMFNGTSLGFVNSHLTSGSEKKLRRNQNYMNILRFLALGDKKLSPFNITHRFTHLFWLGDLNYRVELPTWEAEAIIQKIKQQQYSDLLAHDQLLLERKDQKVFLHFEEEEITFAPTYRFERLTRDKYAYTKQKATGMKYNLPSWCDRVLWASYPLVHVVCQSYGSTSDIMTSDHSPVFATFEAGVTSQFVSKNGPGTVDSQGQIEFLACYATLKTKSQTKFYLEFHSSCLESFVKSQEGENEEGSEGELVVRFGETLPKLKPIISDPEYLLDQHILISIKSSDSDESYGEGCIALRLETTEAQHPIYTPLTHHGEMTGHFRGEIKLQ
In words: Biolayer interferometry, PAC2-K681A. The format is binding. Particulars: 20 μM analyte; K681A vs wild-type PAC2. The procedure:
Expression of PAC2-Avi tag for Biolayer interferometry. A sequence corresponding to Avi-tag ([…]) was added to the c-terminal end of the PAC2 in LIC-HMT-PAC2 expressing vector via standard restriction digestion and ligation. The LIC-HMT-PAC2-Avi expressing vector was then co-transformed into E. coli BL21 cells with pBirAcm expression vector in 1:1 molar ratio. Overnight culture was inoculated with a 250-fold dilution to start the actual culture. The cells were grown at 37° C. in LB medium (supplemented with 50 μg/mL of kanamycin and 10 μg/mL of chloramphenicol) with shaking speed of 225 rpm. When OD600 reached about 0.6, 5 mM of biotin in bicine buffer pH 8.3 was added to the culture to have final concentration of 125 μM of biotin. The culture was then cooled down to room temperature before the addition of 0.4 mM isopropyl-B-D-1-thiogalactopyranoside (IPTG) to induce the expression of the recombinant protein with Avi-tag. The rest of the method is identical as written in “Expression of PAC2 for crystallography”.
Biolayer interferometry. […] The association was measured for 600 s at an analyte concentration of 20 μM followed by dissociation for 300 s in the same buffer as the baseline. The raw data was analyzed using the Octet Red Data Analysis software (ver. 8.2). […]

Take IL6: pro-inflammatory cytokine IL6: the “association (co-precipitation) of SHIP1 and STAT3” value in experiment [1] was “failed to induce STAT3 association with SHIP1”. For the same substance, the “Clover-mRuby2 FRET signal” value in experiment [2] is recorded as “not”.
As to PI(3,4)P2 [reference compound], in experiment [3], the “binding to PAC2 with K681A substitution (BLI)” value was “impairs”.
